Experimental data published in patent US20190241648A1 (STATEN BIOTECHNOLOGY B V, published 2019).

Columns and labels:
[1] = molecular target: cynomologus monkey ApoC3 (cynoApoC3), native protein (Macaca fascicularis (cynomologus monkey), UniProt P18659 21-99); assay: SPR (Biacore 3000), antibody IgG1 amine-coupled to a CM5 chip, native ApoC3 injected, HBS-EP pH 7.4
Protocol: The SPR experiments were carried out using a Biacore 3000 instrument (GE Healthcare). Flow cells of CM5 sensor chips were coupled with the generated IgG formatted antibodies of 14C7, 5A7, 5E5 and 6A6 (˜2000 RU) using the amine coupling chemistry. The coupling was performed using the adaptive immobilization Biacore protocol aiming 2000 RU as coating density, using 10 μg/ml antibody solutions in 10 mM sodium acetate buffer at pH 5.0. For all experiments the HBS-EP buffer at pH 7.4 was used as running and dilution buffer. 60 μl of human native ApoC3 or cynomologus monkey native ApoC3 protein preparations in the concentration range of 10 to 200 μg/ml were injected over all flow channels, followed by an off-rate wash at pH7.4 for 5 min. All injections were performed at a constant flow rate of 30 μl/min at 25° C. After the dissociation, the flow cell surfaces were regenerated by injecting 10 μl of 10 mM NaOH/1 M NaCl and 10 μl of 10 mM glycine at pH1.5. The resulting sensorgrams after blank channel subtraction were used to confirm cross-species reactivity and to evaluate affinity.

[2] = molecular target: T1, human ApoC3 (huApoC3), native protein purified from human serum (human, UniProt P02656 21-99); assay: ELISA, biotinylated huApoC3 captured on neutravidin, scFv periplasmic extract
T1 construct: Athens Research and Technology; randomly biotinylated in some assays; also called Apolipoprotein C3
Protocol: The antibody clones selected from the scFv phage display library constructed in Example 1 were analyzed by a ELISA assay with biotinylated ApoC3 captured by […] which was coated on plates. Neutravidin (Fisher Scientific LDAcat#: W9995L) diluted in PBS (pH 7.4) at a concentration of 2-5 μg/ml (100 μl/well) was incubated in Microtiter Immunoassay Maxisorp 96-well plates (NUNC cat#:1456537 or similar) at 4° C. overnight. The coated plates were washed three times with 250 μl/well PBS-T to remove the excess of the unbound neutravidin. After washing, 250 μl 1% (m/v) of casein solution prepared in PBS was added to each coated well for blocking, and the plates were incubated for 1 to 2 hours at room temperature on a plate shaker (TitraMax 1000, Heidolph or similar). After blocking, the plates were washed three times to remove the excess of the blocking solution with 250 μl/well PBS-T. Biotin groups were introduced at random sites of human native ApoC3 protein (Athens Research and Technology). […] The absorbance of the end-product is measured at 450 nm using a Microplate spectrophotometer.

[3] = molecular target: T1, human ApoC3 (huApoC3), native protein …; assay: cell-based or functional assay
[4] = molecular target: T1, human ApoC3 (huApoC3), native protein …; assay: SPR Biacore, huApoC3 on chip, scFv-Fc as analyte
Protocol: This example describes characterization of anti-ApoC3 antibodies regarding their affinity to ApoC3 under neutral conditions using an SPR-based assay using a Biacore 3000 instrument (Biacore AB). Native huApoC3 protein was immobilized on a CM5 chip. The immobilization was performed in accordance with the method provided by Biacore using the NHS/EDC kit (Biacore AB): after activation of the chip, a solution of 60 μg/ml of human ApoC3 in 10 mM acetate buffer with pH of 4.5 was prepared and injected until the surface density reached approximately 1000 RU. Capturing of the human ApoC3 on the streptavidin coated chip (SA) was performed at pH 7.4 in accordance with a method provided by Biacore via injection of 20 μl 10 μg/ml biotinylated human ApoC3 thereby reaching the surface density of approximately 500 RU. […] After the dissociation, the flow cell surfaces were regenerated by injecting 10 μl of 10 mM […]/1 M NaCl and 10 μl of 10 mM glycine at pH1.5. The resulting sensorgrams were analyzed using the BIAevaluation 4.1 software using Langmuir 1:1 binding model to derive binding kinetics. Data was zero adjusted and the reference cell sensorgrams were subtracted.
A number of scFv-Fc antibodies were examined in this assay. The association rate (ka), dissociation rate (kd), analyte binding capacity (Rmax), equilibrium association constant (KA) and equilibrium dissociation constant (KD) of these antibodies are shown in Table 5.

[5] = molecular target: T1, human ApoC3 (huApoC3), native protein …; assay: SPR Biacore, huApoC3 on chip, IgG1 as analyte

T1 sequence (P02656 21-99): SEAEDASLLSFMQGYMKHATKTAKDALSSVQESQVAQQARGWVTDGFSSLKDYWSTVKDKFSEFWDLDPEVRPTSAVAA
Chain of cynomologus monkey ApoC3 (cynoApoC3), native protein (P18659 21-99 limits assumed): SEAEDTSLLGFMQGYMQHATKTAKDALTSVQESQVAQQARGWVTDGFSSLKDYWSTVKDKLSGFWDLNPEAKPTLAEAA

B1: 5A7 IgG1 (antibody, V domains shown)
VH: EVQVQESGPGLVKPSQTLSLTCTVSGASITNRRYAWTWIRQPPGKGLEWMGVIVYDGNTHVSPSLRSRTSISRDTSKNQFSLQLSSLTPEDTAVYYCARVLLLRDPLSLDYWGQGTQVTVSS
VL: SSALTQPPSMSGTLGKTLTISCAGTSSDIGAYNFVSWYQQLPGTAPKLLIYDIDKRASGIPDRFSGSKSGNTASLSISGLQSEDEADYYCAAYGSRDNVVFGGGTHLTVL
notes: IgG1 format
binding result [1]: binds

B2: 12D7 scFv (scFv, V domains shown)
VH: ELQLVESGGDLVQPGGSLRLSCAASGFTFDDYAMSWVRQAPGKGLEWVSAITSNGKRTDYAESMKGRFTISRDNSKNTLYLEMNSLKSEDTAVYYCTKGPPHYIPIPSMTPRDSWGQGTQVTVSS
VL: SSALTQPSAVSVSLGQTARITCQGGTLGRYYGSWYQQKPAQAPVLLIYGDNSRPSGIPERFSGSKSGDTATLTISGTQAEDEADYYCESFDFSGNAAVFGGGTHLTVL
notes: scFv (crude periplasmic extract) with C-terminal c-myc tag
binding result [2]: binds

B3: 6A6 IgG1 (antibody, V domains shown)
VH: EVQLVESGGGLVQPGGSLRLSCAASGFTFSSYAGRWVRQVPGKGLEWVSSINAGGGSTSYADSVKGRFTISRDNAKNTLYLQMNSLKPEDTAKYYCTQNSYRYWGQGTRVAVSS
VL: DVVLTQTPGSLSVVPGESASISCKASQSLIHTDGKTYLYWLLQKPGQRPQLLIYQVSSHESGVPDRFTGSGSGTDFTLKISGVKAEDAGVYYCAQATYNPRTFGQGTKLEIK
notes: IgG1 format
EC50, attenuation of ApoC3-mediated LPL inhibition (NEFA production) [3]: > 5 µM
binding result [1]: binds

B4: 6A6 scFv-Fc (Fc fusion)
VH: EVQLVESGGGLVQPGGSLRLSCAASGFTFSSYAGRWVRQVPGKGLEWVSSINAGGGSTSYADSVKGRFTISRDNAKNTLYLQMNSLKPEDTAKYYCTQNSYRYWGQGTRVAVSS
VL: DVVLTQTPGSLSVVPGESASISCKASQSLIHTDGKTYLYWLLQKPGQRPQLLIYQVSSHESGVPDRFTGSGSGTDFTLKISGVKAEDAGVYYCAQATYNPRTFGQGTKLEIK
notes: scFv-Fc format
attenuation of the ability of ApoC3 to inhibit VLDL uptake by HepG2 cells [3]: ~75%
Ka [4]: 6.41e+09 M⁻¹
Kd [4]: 0.156 nM
koff [4]: 0.000186 s⁻¹
kon [4]: 1.19e+06 M⁻¹ s⁻¹

B5: 12G8 scFv (scFv, V domains shown)
VH: QLQLVESGGGLVQPGGSLRLSCAASGFTFDDYAMSWVRQAPGKGLEWVSAIRWNGDTYYAESMKGRFDMSRDNAKNTLYLQMNSLKSEDTAVYYCAKHRPGGALDTWGQGTLVTVSS
VL: QAVLTQPSAVSVSLGQTARITCQGGNFGNFYASWYQQKPGQAPVLVIYKDSERPSGIPERFSGSSSGDTATLTISGAQAEDEADYYCQSGSSSDNVVFGGGTHLTVL
notes: as for B2
binding result [2]: binds

B6: 14C7 IgG1 (antibody, V domains shown)
VH: QVQVQESGPGLVKPSQTLSLTCTVSGGSITTNSYYWSWIRQPPGKGLEWMGAIDYSGDTYYSPSLKSRTSISRDTSKNQFTLQLTSVTPEDTAVYYCVSRIPTGEYWGQGTQVTVSS
VL: QTVVTQEPSLSVSPGGTVTLTCGLNSGSVTSSNYPDWYQQTPGQAPRLLIYNTNSRHSGVPSRFSGSISGNKAALTITGAQPEDEADYYCALYMGSDSVVFGGGTHLTVL
notes: IgG1 format
EC50, attenuation of ApoC3-mediated LPL inhibition (NEFA production) [3]: ~2 µM
Ka [5]: 1.46e+09 M⁻¹
Kd [5]: 0.684 nM
koff [5]: 5.61e-05 s⁻¹
kon [5]: 82000 M⁻¹ s⁻¹
binding result [1]: binds
